Experimental data: article PMC9769727, “Glucose-6-Phosphate Dehydrogenase, ZwfA, a Dual Cofactor-Specific Isozyme Is Predominantly Involved in the Glucose Metabolism of Pseudomonas bharatica CSV86^T” (Microbiology Spectrum, 2022)

Tests used:
[1] = molecular target: Glucose-6-phosphate dehydrogenase ZwfC from Pseudomonas bharatica CSV86T (Pseudomonas bharatica CSV86T); experiment: SEC; Superdex 200 Increase 10/300 GL column (CV 24 mL, GE Healthcare) in Buffer A (Tris-Cl 50 mM, pH 7.5), 4°C; native molecular weight from a semilog plot of Ve/V0 against standard proteins, compared with the subunit weight by SDS-PAGE
[2] = molecular target: Glucose-6-phosphate dehydrogenase ZwfA from Pseudomonas bharatica CSV86T (Pseudomonas bharatica CSV86T); experiment: SEC; ENrich SEC 650 column (CV 24 mL, Bio-Rad) in Buffer A (Tris-Cl 50 mM, pH 7.5), 4°C; native molecular weight from a semilog plot of Ve/V0 against standard proteins, compared with the subunit weight by SDS-PAGE
purified protein [3] = substrate: NC(=O)c1ccc[n+]([C@@H]2O[C@H](COP(=O)(O)OP(=O)(O)OC[C@H]3O[C@@H](n4cnc5c(N)ncnc54)[C@H](O)[C@@H]3O)[C@@H](O)[C@H]2O)c1; experiment: purified protein; assay type: biochemical, Pseudomonas bharatica; settings: 5 mM G6P fixed, Tris-Cl 50 mM, pH 8.25, hyperbolic
purified protein [4] = substrate: NC(=O)c1ccc[n+]([C@@H]2O[C@H](COP(=O)(O)OP(=O)(O)OC[C@H]3O[C@@H](n4cnc5c(N)ncnc54)[C@H](OP(=O)(O)O)[C@@H]3O)[C@@H](O)[C@H]2O)c1; experiment: purified protein; assay type: biochemical, Pseudomonas bharatica; settings: 5 mM G6P fixed, Tris-Cl 50 mM, pH 8.25, hyperbolic

Molecule: Glucose-6-phosphate dehydrogenase ZwfC from Pseudomonas bharatica CSV86T (enzyme)
- stoichiometry N [1]: 4

Molecule: Glucose-6-phosphate dehydrogenase ZwfA from Pseudomonas bharatica CSV86T (enzyme)
- stoichiometry N [2]: 4

B1: ZwfA (Pseudomonas bharatica CSV86) (protein)
chain: MSSISVEPCTFALFGALGDLALRKLFPALYQLDRAGLLHERTRLLALAREPGSVQEHLASIEAHLHEFVASDTLDTTVLQRFLGRLNYLHMDFLDAQAYPALAAQVTPEAPLIAYFATPAAVYGGICENLAKVGLAERTRVVLEKPIGHDLESSRRVNDAVAQFFPENRIYRIDHYLGKETVQNLIALRFANSLFETQWNQTSISHVEISVAEKVGIEGRWGYFDKAGQLRDMIQNHLLQLLCLIAMDPPSDLSADSIRDEKVKVLKALAPITGEGLGTRVVRGQYIAGHSDGRALPGYLDEENANTHSDTETFVALRADIRNWRWAGVPFYLRTGKRMPQKLSQIVIHFKEPQHYIFAAEQRLQIGNKLIIRLQPDEGISLRVMTKEQGLDKGMQLRSSPLQLNFSDGSFRSARIPDAYERLLLEVMRGNQNLFVRKDEIEYAWKWCDQLIAGWKQSGEAPRPYAAGTWGPVAAVALITRDGRSWYGDI
notes: full length, 490 aa (1473 nt), pET28a N-terminal 6xHis tag, E. coli BL21(DE3), Ni-NTA; subunit ~56 kDa, homotetramer ~217 kDa; part of zwfA-pgl-eda operon; Arg49, Leu17
- Km (purified protein [3]): 366 ± 70 µM
- Vmax (purified protein [3]): 329 ± 74 µmol/min/mg
- kcat (purified protein [3]): 306 ± 69 s⁻¹
- kcat/Km (purified protein [3]): 860000 ± 150000 M⁻¹ s⁻¹
- Km (purified protein [4]): 110.5 ± 20 µM
- Vmax (purified protein [4]): 201 ± 28 µmol/min/mg
- kcat (purified protein [4]): 187 ± 26 s⁻¹
- kcat/Km (purified protein [4]): 1.7e+06 ± 300000 M⁻¹ s⁻¹
